Measured values reported in US20140342918.

Tested on: Vesicular stomatitis virus (whole virion) (Vesicular stomatitis virus)

Sequence | binding signal (ohm (RCTV-RCTB))
CTCCTCTGACTGTAACCACGCGCCCTCAGAACTTTTGTATCCGAACACCTGCATCGTCCGGGCTTCTGGACTACCTATGC [SwAp1] | 1040
CTCCTCTGACTGTAACCACGGCACCCCGAGGCAATTTCGCGCATAGTTCATCCTGTTTGGGGCTTCTGGACTACCTATGC [SwAp15] | 930
CTCCTCTGACTGTAACCACGNNNNNNNNNNNNNNNNNNNNNNNNNNNNNNNNNNNNNNNGGCTTCTGGACTACCTATGC [Pool 10] | 182
CTCCTCTGACTGTAACCACGTACCACCCGTGACCCTCACATCCCTCCTCTGACGTAACCACGCGGGCTTCTGGACTACCTATGC [SwAp8] | 1680
CTCCTCTGACTGTAACCACGTACCACCCGTGACCCTCACATCCCTCCTCTGTTCTCCGCGGGCTTCTGGACTACCTATGC [SwAp5] | 838
CTCCTCTGACTGTAACCACGTACCACCCGTGACCCTCACATCCCTCCTCTGTTCTCCGCGGGCTTCTGGACTACCTATGC [SwAp13] | 1980
CTCCTCTGACTGTAACCACGTACCACCCGTGACCCTTACATCCCTCCTCTGTTCTCCGCGGGCTTCTGGACTACCTATGC [SwAp12] | 2180
CTCCTCTGACTGTAACCACGTACCACCCGTGACGCGCACATCCCTCCTCTGTTCTCCGCGGGCTTCTGGACTACCTATGC [SwAp2] | 1420
CTCCTCTGACTGTAACCACGTACCACCCGTGGCCCTCACATCCCTCCTCTGTTCTCCGCGGGCTTCTGGACTACCTATGC [SwAp7] | 1770
CTCCTCTGACTGTAACCACGTACCACCCGTGGCCCTCACATCCCTCCTCTGTTCTCCGCGGGCTTCTGGACTACCTATGC [SwAp9] | 1180
CTCCTCTGACTGTAACCACGTACCACCCTTGACCCTCACATCCCTCCTCTGTTCTCCGCGGGCTTCTGGACTACCTATGC [SwAp14] | 709
CTCCTCTGACTGTAACCACGTACCGCCCGTGACCCTCACATCCCTCCTCTGTTCTCCGCGGGCTTCTGGACTACCTATGC [SwAp10] | 3720
CTCCTCTGACTGTAACCACGTGCCCCCTCCATCCCGAGTAACCTACGTCCATGTCTCGCTGGCTTCTGGACTACCTATGC [SwAp3] | 803
CTCCTCTGACTGTAACCACGTGCCCCCTCCATCCCGAGTAACCTACGTCCATGTCTCGCTGGCTTCTGGACTACCTATGC [SwAp4] | 955
CTCCTCTGACTGTAACCACGTGGCACTGTTGTCATCACTGTCCCCCCCTAACTCGTCCGTGGCTTCTGGACTACCTATGC [SwAp6] | 1290
TCCTCTGACTGTAACCACGCAGCCACCATACTGTCCCGTTTGCCCCCGCCGATTCCGTCGGCTTCTGGACTACCTATGC [SwAp11] | 373
